Where two headings read alike, the source gives them in different places.
Key:
[1] = molecular target: contortrostatin (CN), native (Agkistrodon contortrix contortrix); assay: fluorescence polarisation
[2] = molecular target: vicrostatin (VCN) (Agkistrodon contortrix contortrix (southern copperhead venom gland cDNA library) | not stated); assay: fluorescence polarisation
[3] = molecular target: activated platelet integrin αIIbβ3 (human (endogenous in platelets)) (UniProt P08514)
[4] = molecular target: contortrostatin (CN), native (Agkistrodon contortrix contortrix); assay: fluorescence polarisation; differing concentrations of purified soluble integrin with a constant amount of FITC-labelled CN or VCN, in solution, steady state; Scatchard analysis and non-linear curve fit
[5] = molecular target: vicrostatin (VCN) (Agkistrodon contortrix contortrix (southern copperhead venom gland cDNA library) | not stated); assay: as above
[6] = molecular target: activated platelet integrin αIIbβ3 (human (endogenous in platelets)) (UniProt P08514); remark: listed apart in the source

Sequence of UniProt P08514 (P08514 32-1039, chain 1 of 2): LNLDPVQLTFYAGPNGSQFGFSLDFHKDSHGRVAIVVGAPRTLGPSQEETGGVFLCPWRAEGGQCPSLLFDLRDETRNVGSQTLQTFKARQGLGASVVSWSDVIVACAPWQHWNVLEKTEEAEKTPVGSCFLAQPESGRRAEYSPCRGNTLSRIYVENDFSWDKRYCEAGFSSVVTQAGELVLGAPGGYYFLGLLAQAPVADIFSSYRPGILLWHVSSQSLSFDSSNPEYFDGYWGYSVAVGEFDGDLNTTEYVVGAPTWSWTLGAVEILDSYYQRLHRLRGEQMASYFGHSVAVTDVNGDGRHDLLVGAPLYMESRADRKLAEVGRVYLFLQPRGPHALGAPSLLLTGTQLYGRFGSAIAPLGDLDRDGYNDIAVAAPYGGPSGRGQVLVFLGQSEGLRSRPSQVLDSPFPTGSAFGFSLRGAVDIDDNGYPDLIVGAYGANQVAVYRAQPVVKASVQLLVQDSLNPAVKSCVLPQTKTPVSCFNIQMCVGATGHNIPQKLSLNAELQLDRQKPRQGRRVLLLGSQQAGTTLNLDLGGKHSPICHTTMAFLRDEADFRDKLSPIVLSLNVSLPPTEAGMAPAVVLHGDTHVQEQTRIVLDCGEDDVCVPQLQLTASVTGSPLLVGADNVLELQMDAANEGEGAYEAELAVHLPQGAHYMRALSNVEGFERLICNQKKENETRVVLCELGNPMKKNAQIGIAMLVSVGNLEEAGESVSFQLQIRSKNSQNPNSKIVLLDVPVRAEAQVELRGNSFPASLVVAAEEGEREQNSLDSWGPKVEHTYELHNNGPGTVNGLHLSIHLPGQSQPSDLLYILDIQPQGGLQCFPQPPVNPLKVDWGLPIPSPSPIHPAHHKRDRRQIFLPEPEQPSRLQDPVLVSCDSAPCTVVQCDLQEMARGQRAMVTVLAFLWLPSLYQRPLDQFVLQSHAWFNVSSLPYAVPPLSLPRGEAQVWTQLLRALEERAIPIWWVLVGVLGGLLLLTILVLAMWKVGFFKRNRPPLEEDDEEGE
Sequence of UniProt P08514 (P05106 27-788, chain 2 of 2, further chain): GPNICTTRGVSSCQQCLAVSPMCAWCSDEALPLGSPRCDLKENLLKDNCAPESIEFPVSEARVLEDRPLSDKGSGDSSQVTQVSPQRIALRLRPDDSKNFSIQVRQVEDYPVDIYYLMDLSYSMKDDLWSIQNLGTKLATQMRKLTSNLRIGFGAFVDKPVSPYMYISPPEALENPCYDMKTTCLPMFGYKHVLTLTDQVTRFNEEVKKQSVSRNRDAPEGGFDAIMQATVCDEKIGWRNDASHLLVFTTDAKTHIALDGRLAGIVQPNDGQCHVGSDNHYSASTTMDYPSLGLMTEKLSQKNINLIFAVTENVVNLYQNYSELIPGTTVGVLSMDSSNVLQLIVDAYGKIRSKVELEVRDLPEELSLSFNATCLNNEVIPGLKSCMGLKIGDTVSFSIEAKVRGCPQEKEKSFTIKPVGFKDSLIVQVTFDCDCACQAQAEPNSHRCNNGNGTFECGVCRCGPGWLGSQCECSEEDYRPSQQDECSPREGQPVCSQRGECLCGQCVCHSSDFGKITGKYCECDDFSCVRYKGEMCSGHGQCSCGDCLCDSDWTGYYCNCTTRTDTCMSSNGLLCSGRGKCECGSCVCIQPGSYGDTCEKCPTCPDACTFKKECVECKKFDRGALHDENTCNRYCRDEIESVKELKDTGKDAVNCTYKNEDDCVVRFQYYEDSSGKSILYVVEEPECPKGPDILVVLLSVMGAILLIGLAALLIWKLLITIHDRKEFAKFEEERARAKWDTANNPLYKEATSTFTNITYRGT

purified soluble integrin αvβ5 (from UniProt P06756 31-1048; P18084 24-719) (receptor)
Kd [1]: 19.5 nM
Kd [2]: 41.2 nM

vicrostatin (VCN) (ligand)
IC50 of inhibition of ADP-induced platelet aggregation in human platelet-rich plasma (blocks fibrinogen binding to αIIbβ3) [3]: 60 nM

purified soluble integrin αvβ3 (from UniProt P06756 31-1048; P05106 27-718) (receptor)
Kd [4]: 6.6 nM
Kd [5]: 7.4 nM

contortrostatin (CN), native (natural protein)
IC50 of inhibition of ADP-induced platelet aggregation in human platelet-rich plasma (blocks fibrinogen binding to αIIbβ3) [6]: 60 nM

soluble recombinant integrin α5β1 (from UniProt P08648 42-1049; P05556 21-728) (receptor)
Kd [1]: 191 nM
Kd [2]: 15.2 nM

Reference: PMC2880590
